Results: article PMC11529722 (Science Advances, 2024)

Molecular target: valosin-containing protein (VCP), histidine-tagged (UniProt P55072 1-806)
Assay: BLI

valosin-containing protein (VCP), histidine-tagged, sequence (P55072 whole entry): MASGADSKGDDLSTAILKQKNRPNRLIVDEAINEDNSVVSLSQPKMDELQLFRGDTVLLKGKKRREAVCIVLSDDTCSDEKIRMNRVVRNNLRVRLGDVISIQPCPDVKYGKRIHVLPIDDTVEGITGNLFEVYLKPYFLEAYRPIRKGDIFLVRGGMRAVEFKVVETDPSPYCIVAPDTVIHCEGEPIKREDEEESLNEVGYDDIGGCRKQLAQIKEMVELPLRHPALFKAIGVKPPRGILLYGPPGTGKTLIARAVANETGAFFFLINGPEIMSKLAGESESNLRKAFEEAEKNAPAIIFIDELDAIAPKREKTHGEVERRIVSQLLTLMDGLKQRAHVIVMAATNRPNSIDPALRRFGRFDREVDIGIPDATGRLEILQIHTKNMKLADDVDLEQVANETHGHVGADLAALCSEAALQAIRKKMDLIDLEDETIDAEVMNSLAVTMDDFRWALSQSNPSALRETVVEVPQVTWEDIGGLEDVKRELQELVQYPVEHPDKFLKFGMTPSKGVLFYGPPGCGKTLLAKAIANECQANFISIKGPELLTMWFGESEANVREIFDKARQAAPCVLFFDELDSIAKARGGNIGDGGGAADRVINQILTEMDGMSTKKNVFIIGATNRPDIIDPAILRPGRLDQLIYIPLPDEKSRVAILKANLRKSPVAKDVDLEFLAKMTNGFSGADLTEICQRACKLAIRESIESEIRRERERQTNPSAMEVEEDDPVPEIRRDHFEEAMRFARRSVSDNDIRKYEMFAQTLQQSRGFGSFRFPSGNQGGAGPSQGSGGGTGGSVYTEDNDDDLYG

B1: P1, protein-like polymer (PLP) with HVLVMSATRR peptide side chains (other)
peptide: HVLVMSATRR
modifications: N terminus conjugated to N-(hexanoic acid)-exo-5-norbornene-2,3-dicarboximide, polymerised through the norbornene (ROMP) into the polymer backbone
Kd: 0.092 µM | koff: 2.5e-05 s⁻¹
